The target of experiment [1] is T1, purified recombinant human BSG2 extracellular domain (human, UniProt P35613 22-325).
T1 construct: also called Human BSG2 ECD
T1 sequence: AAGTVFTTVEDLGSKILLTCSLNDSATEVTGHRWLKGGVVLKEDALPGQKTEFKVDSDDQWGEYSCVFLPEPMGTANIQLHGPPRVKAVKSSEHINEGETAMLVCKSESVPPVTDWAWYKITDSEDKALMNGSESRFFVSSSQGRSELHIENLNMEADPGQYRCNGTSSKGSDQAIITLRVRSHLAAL
Nature of the experiment: SPR (Biacore), mAb captured by anti-mouse Fc, BSG2 ECD injected, 25 C. The procedure:
(§1) Binding of BSG2 antibodies to a purified recombinant BSG2 extracellular domain (ECD) was determined by surface plasmon resonance-based measurements with a Biacore® instrument (either a Biacore 2000, Biacore 3000, or Biacore T100; GE Healthcare, Piscataway, N.J., US). The assay format for mAb affinity analysis was Fc-based capture via immobilized anti-Fc IgG. A standard amine coupling protocol was employed to immobilize Fc-specific IgG via primary amines to the carboxy-methyl (CM) dextran surface of CMS sensorchips. For the study of mouse anti-human BSG2 mAbs, anti-mouse Fc was used as the immobilized capture reagent. An automated protocol, available on the Biacore 2000, was used to immobilize 8000-10000RU of capture reagent in all 4 flowcells of the sensorchip. Binding was recorded as a function of time and kinetic rate constants were calculated. In this assay, on-rates as fast as 10⁷M⁻¹ s⁻¹ and off-rates as slow as 10⁻⁵ s⁻¹ can be measured.
(§2) Briefly, the CM-dextran surfaces were activated by freshly prepared 1:1 […] 3-(N,N-dimethylamino)propyl-N-ethylcarbodiimide (EDC). Then the anti-Fc IgG capture reagent (20 μg/ml in 10 mM sodium acetate, pH 4.5) was applied to the surface followed by deactivation of the surface and blocking of the residual reactive sites with 1M ethanolamine (pH 8.5). The running buffer employed was PBS-PB [1×PBS (Sigma P3813), pH 7.4, 0.005% P20 surfactant, 0.1 mg/ml BSA (Sigma-A7906)] and the assay temperature was 25° C. All reagents were diluted into running buffer to the specified concentrations. Each experimental cycle consisted of the following steps: (1) anti-BSG2 mAbs at 0.5 to 1 μg/ml were captured in flowcells 2, 3 or 4 to a level of 100-120RU. All measurements were referenced against flowcell 1 which had no captured anti-BSG2 mAb; (2) human BSG2 ECD was injected through all 4 flowcells, 240 μl at 80 μl/min. After the antigen injection, dissociation was monitored for 600 seconds at 80 μl/min; and (3) the anti-Fc capture surface was regenerated with 10 mM glycine, pH 1.5.
(§3) The BSG2 antibody binding affinities were determined by the BIACORE technology as described in Example 1.2. Table 10 represents the antibody binding kinetics against human and cynomolgus monkey BSG2 extracellular domain (ECD).
On the technique in general: SPR reads the build-up and loss of mass on a sensor chip optically.

Experiment [2] has as its target T2, cynomolgus monkey BSG2 extracellular domain (cynomolgus monkey).
T2 construct: extracellular domain; also called Cynomolgus BSG2 ECD
The experiment is described as above. The procedure:
as §1, §2, §3

Experiment [3] addresses T3, human BSG2 (basigin isoform 2) on the cell surface (human, UniProt P35613 140-385).
T3 construct: Presented on stably transfected BAF3 cells or endogenously on human tumor cell lines (HepG2, MiaPaCa-2, DoHH-2); also called hBSG2; CD147
T3 sequence: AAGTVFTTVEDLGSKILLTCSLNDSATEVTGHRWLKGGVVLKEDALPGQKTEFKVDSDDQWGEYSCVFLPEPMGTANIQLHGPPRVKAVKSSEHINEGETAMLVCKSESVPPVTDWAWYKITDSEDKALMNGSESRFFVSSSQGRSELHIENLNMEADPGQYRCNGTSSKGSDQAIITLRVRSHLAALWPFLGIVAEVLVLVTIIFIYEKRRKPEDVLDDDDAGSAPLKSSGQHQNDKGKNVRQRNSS
In words: receptor binding assay, Eu-labeled antibody on cells expressing human BSG2. The procedure:
Cell lines expressing BSG2 were harvested and washed once in assay buffer (PBS, 0.1% BSA, 0.02% Na Azide, 10 mM EDTA) and resuspended to 5×10⁶ cells per mL. Serial 1:2 dilutions of ⁺³Eu-labeled anti-BSG2 antibody stock in assay buffer were made for final concentrations ranging from 1.6×10⁻⁸-7.7×10⁻¹² M, and a 4 mg/mL solution of unlabeled anti-BSG2 antibody was also prepared. To 96 well round bottom plates, 25 μl of ⁺³Eu-labeled antibody dilutions were added to 25 μl buffer (total counts), or 25 μl of unlabeled antibody were added to 25 μl buffer (background counts). 50 μl of cells at 2.5×10⁵ cells per well were then added to all samples, mixed gently, and incubated on ice for 1 hour. Cell bound antibody was then separated from unbound antibody by transferring 20 μL of the reaction mixture to Acrowell 96 well filter plates (Pall PN 5020), centrifuged for 5 min (2200 rpm), washed 3× with 150 μL cold assay buffer, and centrifuged for 5 min. Signal was determined by incubating samples with 150 μL/well of enhancement buffer and read using Envision. The specific counts were determined by subtracting the background counts (cells+labeled antibody+excess cold antibody) from the corresponding total counts (cells+labeled antibody) for each antibody concentration. The labeled antibody concentration versus total counts was analyzed using Graphpad Prism 4 to calculate Kd and Bmax values.
BSG2 antibody binding activities against whole cells expressing human or cynomolgus monkey BSG2 were assessed by ECL using MSD technology (described in Example 1.3) and the receptor binding assay (described in Example 1.4) and are shown in Table 11.

In experiment [4] the target is T3, human BSG2 (basigin isoform 2) on the …. In words: flow cytometry (FACS) on HepG2 hepatocellular carcinoma cells (cell-surface BSG2); HepG2 hepatocellular carcinoma cells (endogenous BSG2), not BAF3 transfectants. The procedure: Stable cell lines overexpressing cell-surface BSG2 or human tumor cell lines were harvested from tissue culture flasks, washed three times and resuspended in phosphate buffered saline (PBS) containing 1% bovine serum albumin and 1 mM CaCl₂ (FACS buffer). 5×10⁵ cells were incubated with antibodies at various concentrations in FACS buffer for 60 minutes on ice. Cells were washed twice and the bound murine monoclonal antibody was detected with a goat Fab′2 anti-mouse IgM+IgG+IgA (H+L) R-phycoerythrin-conjugated antibody (Southern Biotechnology Associates, Inc., Birmingham, Ala., Catalog No. 1012-08) diluted 1:500. Following incubation on ice (4° C., 60 minutes), cells were washed three times and resuspended in FACS buffer. Fluorescence was measured using a Becton Dickinson FACSCalibur-HTS (Becton Dickinson, San Jose, Calif., US). Data were analyzed using Graphpad Prism software and EC₅₀ values were reported as the concentration of antibody to achieve 50% of maximal BSG2 antibodies binding to BSG2 expressing cells.
On the technique in general: A flow cytometer gives signals particle by particle.

B1: mouse anti-human BSG2 monoclonal antibody ML64-6A11-3A3 (antibody, mouse IgG2a, V domains shown)
VH: EVKLEESGGGLVQPGGSMKLSCVASGFTFSNFWMDWVRQSPEKGLEWIAGIRLKSYNYATHYAESVKGRFTISRDDSKSSVYLQMNNLRAEDTGIYYCTDWDGAYWGQGTLVTVSA
VL: DIVMTQSHKFMSTSVGDRVSITCKASQDVSTDVAWYQQKPGQSPKLLIYSASYRYTGVPDRFTGSGSGTDFTFTISSVQAEDLAVYYCQQHYSTPFTFGSGTKLEIK
notes: Hybridoma antibody, mouse IgG2a/kappa; also called 6A11-3A3 parental mouse antibody; Ab 3A3
As usually defined, the Kd is a measure of binding affinity in units of concentration. Usually koff stands for the first-order rate constant of dissociation. The term kon denotes the second-order rate constant of association. In general, EC50 refers to the concentration giving half of the maximal effect. On to B1, for which, in experiment [1], the dissociation constant (Kd) turned out to be 1.5 nM, the dissociation rate constant (koff) stood at 0.00059 s⁻¹ and the on-rate (kon) is 400000 M⁻¹ s⁻¹. In experiment [2], this molecule yielded a dissociation constant Kd of 440 nM, a koff of 0.149 s⁻¹ and a kon of 338000 M⁻¹ s⁻¹. Moreover, the Kd in experiment [3] came out at 2 nM. This molecule displayed an EC50 in experiment [4] of 0.32 nM.
